Assay results from the DeepSol protein solubility set.

Assay: soluble on expression in E. coli; label from the status in PepcDB or PDB records

Sequence | soluble on expression in E. coli
MGKKYEIFLNENEHSLITPKVSFKEILRYYYLYPKNAIPSFKLPFFKPDLSGFSTPHITWLGHSSLFISFKEYKILIDPIFNTHASPISFINKAFKNAPVYNINDFNEIFAVIITHSHFDHLDAKSVKALKDKAKFFITPLKVGNYLKSYGVSEKKIIELDWWSGIEFGDLKIMATPAQHSSSRGDGKNKTLWASFVMEFLSVDKRVFFSADGGYFTHFKKIGEYFGSFDLACLESGQFNIAWPYSHSFPEQILKEAKDLNAKAVMPIHWGRFLAGTHAWNEVVKFLYENLDLPLITPKMGEAYEVGAKLEHHHHHH | soluble
GLFDKLKSLVSDDKKDTGTIEIIAPLSGEIVNIEDVPDVVFAEKIVGDGIAIKPTGNKMVAPVDGTIGKIFETNHAFSIESDSGVELFVHFGIDTVELKGEGFKRIAEEGQRVKVGDTVIEFDLPLLEEKAKSTLTPVVISNMDEIKELIKLSGSVTVGETPVIRIKK | soluble
MGSDKIHHHHHHMNSNFLSSYPRDVIAVLVKDDQPLEQPKCNVRLAEFTYATVGVNGEPTTASAAMLVPGGPQCQGPYPLLGWGDGTQTLRRDEMAKDIRDAKGNDPLVTHLASQGYVVVSTDYLGLGKSSYPFHPYLHSATEANAMIDALRAARTVLDRLNTPLSGKVMLSGYSVGGHAAMASQREIEAHLSKEFNLVASAPIAGPYALEQTFVDSWSGRNTVGESTFGLVLASYAIVGMQHAYQNIYTAPSQVFRAPWAATVESQFPGTKSLLDLFVDLPEIGKVKQYFQADFYRDFASNPNNPFRKDLARNDLLDWRPRTKTLLCGSSNDATVPLKNATTAIAAFEQRGSTQVSLVDLGTGKASDNSAGEHLAIKDSCIVAVRQQLLDKQR | not soluble
MSHIQRETSCSRPRLNSNLDADLYGYRWARDNVGQSGATIYRLYGKPNAPELFLKHGKGSVANDVTDEMVRLNWLTAFMPLPTIKHFIRTPDDAWLLTTAIPGKTAFQVLEEYPDSGENIVDALAVFLRRLHSIPVCNCPFNSDRVFRLAQAQSRMNNGLVDASDFDDERNGWPVEQVWKEMHKLLPFSPDSVVTHGDFSLDNLIFDEGKLIGCIDVGRVGIADRYQDLAILWNCLGEFSPSLQKRLFQKYGIDNPDMNKLQFHLMLDEFF | soluble
MGSDKIHHHHHHMSDLKVLVIGYMHPRNDKRVFRTVQALSKRSEVIYQYWTEKEELPFKENNIRYIPVKCSNRGNIFQKAVKRKQVDEKIRHLVETEDYDILYMHHFPATKPLKPFVVAKKRGKKIVYDIHEYHPQNFLSTLPRPLSDLKGFVMWRIFKKQLQLSDLCIFVSEETRNDVVAKTGLDPEKTFIVPNYASMKIEPDPDKKKMEIVLVGKTPRNLIHEKKLIRALVERGFSFRIIGMDSEAFSDVPHTYTSFLPYEKMMEELSKSMFSLISYKPTGKEDKNYLYSLPHKFYDSIAAGTPVIVKNSFVSMAKMVEDLGIGVVIDPANVEESLKRIENACQRYEEILENIRRHQEGFVWDEKKEEEFLERVMG | not soluble
GMEAHMKSHNLLEAVRFDDQRFVMELVHESENFKIVSFTFKAGQELPVHSHNIEGELNIVVLEGEGEFVGDGDAVIPAPRGAVLVAPISTPHGVRAVTDMKVLVTIAPPI | soluble
MGSDKIHHHHHHACEQNEDWVVNEPMQSFEENPEYAPLNTIPDWVSEKVTPKEYELWRTMSSRYEINYSFLKKDISEKRKKEIYDCINNICERIEKGQINKYEGFLNIADEDGTTLSDSQYFGRIATRSPEGGAEYKTNGCTLYTHSLGPYIKAAVTYKKSDDDVTITSSSVYTGSPYLGNDPSFSGASSVSYDKDKKLIAASCSGTLSFKDGSRKVEVTVQKTGFMIP | not soluble
MAHHHHHHMTQQWFPLMAVTPDYLHCITEERFRTNVYEPEADTFLLLEALDKDAHLLRALQPRRCVEIGCGSGTVISHLMLLLLGATEGGNLGSGSAEKSTAEFHAVDVNPVALEATSITWHNTQKRIIGGDTILPLHLHRGDLFSPFEHEASDITEYTKEEKEEFTFDVILFNPPYVPTTMEELQSAEAGKDLITAAWCGGPRGRVVVDRFISKLPSFLSSRGVCYIVAIRENDVEELMEVIRGTFPNDRCYPVNVTVTAERYTGEHLRVIRVS | not soluble
MRGSHHHHHHTDPALRAALKATIYKATVNVADLDRNQFLDASLTLARHPSETQERMMLRLLAWLKYADERLQFTRGLCADDEPEAWLRNDHLGIDLWIELGLPDERRIKKACTQAAEVALFTYNSRAAQIWWQQNQSKCVQFANLSVWYLDDEQLAKVSAFADRTMTLQATIQDGVIWLSDDKNNLEVNLTAWQQPSGLCGR | soluble
MSLNDRNASKMLSTYNVAYWGGNYYDVNELGHISVCPDPDIREARVDLAQLVKKMQLEQGQRLPALFCFPQILQHRLRSINAAFKRARESFGYEGGYFLVYPIKVNQHRRVIESLVNSGEPLGLEAGSKAEMMAVLAHAGMTRSVIVCNGYKDREYIRLALIGEKLGHKVYLVIEKMSEIKMVLEEAERLNVVPRLGVRARLASQGSGKWQASGGEKSKFGLSATQVLQLVDMLREANSLESLQLLHFHLGSQLSNIRDISTGVRESARFYVELHKLGVNIQCFDVGGGLGVDYEGTRSQSDCSVNYGLNEYANNVIWGIGDACNEHGLPHPTVITESGRAVTAHHTVLVSNVIGVERNEFCEPQPPEAGAPRALESLWDTWQEMQEPENRRSLREWLHDSQMDLHDVHTQYAHGMLDLTHRAWAEQLYLSICNEIQKQLDPSNRAHRPIIDELQERMADKLYVNFSLFQSMPDAWGIDQLFPVLPLEGLDKPPERRAVLLDITCDSDGTIDHYIDGDGVATTMPMPPYDPENPPLLGFFMVGAYQEILGNMHNLFGDTAAVDVYVFPDGTVEVEQTDEGDTVADMLEYVQLNPEKLLEHFRGQVKETDLDTELQAQFLEEFEAGLYGYTYLEDEGHHHHHH | soluble
MAHRPRWTLSQVTELFEKPLLDLLFEAQQVHRQHFDPRQVQVSTLLSIKTGACPEDCKYCPQSSRYKTGLEAERLMEVEQVLESARKAKAAGSTRFCMGAAWKNPHERDMPYLEQMVQGVKAMGLEACMTLGTLSESQAQRLANAGLDYYNHNLDTSPEFYGNIITTRTYQERLDTLEKVRDAGIKVCSGGIVGLGETVKDRAGLLLQLANLPTPPESVPINMLVKVKGTPLADNDDVDAFDFIRTIAVARIMMPTSYVRLSAGREQMNEQTQAMCFMAGANSIFYGCKLLTTPNPEEDKDLQLFRKLGLNPQQTAVLAGDNEQQQRLEQALMTPDTDEYYNAAALLEHHHHHH | not soluble
QESSGNKIHFINVQEGGSDAIILESNGHFAMVDTGEDYDFPDGSDSRYPWREGIETSYKHVLTDRVFRRLKELSVQKLDFILVTHTHSDHIGNVDELLSTYPVDRVYLKKYSDSRITNSERLWDNLYGYDKVLQTATETGVSVIQNITQGDAHFQFGDMDIQLYNYENETDSSGELKKIWDDNSNSLISVVKVNGKKIYLGGDLDNVHGAEDKYGPLIGKVDLMKFNHHHDTNKSNTKDFIKNLSPSLIVQTSDSLPWKNGVDSEYVNWLKERGIERINAASKDYDATVFDIRKDGFVNISTSYKPIPSFQAGWHKSAYGNWWYQAPDSTGEYAVGWNEIEGEWYYFNQTGILLQNQWKKWNNHWFYLTDSGASAKNWKKIDGIWYYFNKENQMEIGWVQDKEQWYYLDVDGSMKTGWLQYMGQWYYFAPSGEMKMGWVKDKETWYYMDSTGVMKTGEIEVAGQHYYLEDSGAMKQGWHKKANDWYFYKTDGSRAVGWIKDKDKWYFLKENGQLLVNGKTPEGYTVDSSGAWLVDVSIEKSATIKTT | soluble
MAEDFSVVVLASDLGIDARPFLTRSDDVDEQENWHDCPQYLGDEDFSDLDLLQFFTLQGLDRSGNRIFRIVGKYFPARVVSAERLKKYISQKISNQCPEGPLCLVYMHSTVQKDDNSPGITILRWIYEDLPSDIKDRLQLVYFIHPGLRSRLVIATLGRLLLSGGLYWKIKYVSRLQYLWEDIKKGEVEIPDFVKNHDNVLEHRPLTDYGIEPDPFQLSEVQSSSFSLNRYENRWVS | soluble
MRPTDTSNFAPAEISKRKVRRVKANGRERARMHGLNNALDMLREYIPITTQHQKLSKIETLRLARNYIDALQRMLQTNEQPTPLEYAHTLANGLSQTTTNMLANLLQVQPRQLLPPSQFDIFSDPSHHQLHPSHPPPHSSFSSSSPSSSCSPPQYYYSPTQPSAAPLQGSCDPQYQQMYHQHSHQNTFNYSP | not soluble
MVADVNLKTGEVGTRIAEINSNSDKRYVQRIIDEPKFSLMANLALSDADKSSTVVHFKASVRKGEKNLTNCIRDGLQEHFGKKIVSLAGQFIIQTGKARLHVMPDFPGCPFENNAEVDKWLNYFEMSAPLICATVMHSYDPGHNLRLEHTHCYSDHGDAGHYHYDVTPETVSYEGWFAPASKIYRIDEIKNR | not soluble
MAGDPMEAIMKKLIGIATAAVFGLGIFTSSANAETVVTTDVLNVRENPTTESKVVGKLLNGNKIDVQNTENGWSKITLDGKDAFVSAEFTKSIYYVTANVLNVRAEANTNSEVLGKLKKDDVIETTNQVQNEWLQFEYNGKTAYVHVPFLTGTAPVIEKQETTAPAKAAAPAKAQAPVAQAKPAAKPAVKAAETNTPSGGRELTVVATAYTAHPSENGGTYGGRVLTAMGHDLTANPNMKMIAVDPKVIPLGSKVWVEGYGEAIAGDTGGAIKGTRIDILLGSDSAAQKWGRKTVKVKILKLEHHHHHH | not soluble
MPPKTRKTKKEDVEEEAVEEILEETKPAKLPESDESYSRKVVISKEGNLPNSRIIKLRHPKEGLALFRISETCFDEIFAVNDGHRSFFYGESVIENGTIHIFTPYNLVFICLPYLQKTAGKFVEIGEILVDDQVDGIKELAENERILKALEAVSDVKDVLDVKLYRLNDQKMLDWMRRKFDSLKKLLESDAHKSLLSCPEAFDRYVFTFLSEYLSSDLALIVKDHLNIQDATVSENIDMSMKRKAVDDDELEDKKQPVAKKPKESVQSKKLQAASKGTKSISSFFGKKSA | soluble
MRGSHHHHHHGSMQYALLFPGQGSQCIGMGKSFYEGHTLAKELFERASNALKVDMKKTLFEENELLKESAYTQPAIYLVSYIAYQLLNKQANGGLKPVFALGHSLGEVSAVSLSGALDFEKALKLTHQRGKMMQEACANKDASMMVVLGVSEESLLSLCQRTKNVWCANFNGGMQVVLAGVKDDLKALEPTLKEMGAKRVVFLEMSVASHCPFLEPMIFKFQELLEKSLKDKFHFEIISNATNEAYHNKAKAVELLSLQLTQPVRYQDCVKSNNDRVDIFFELGCGSVLKGLNKRLSNKPTISVGDNKGLDEAIEFLEEYV | soluble
MKKTKFSSYEEYRNYFKRLIDLERRAQTELHLKEIKTLSGKEREKRGRAILNLRAKFLGRGLGGVYLVRYSRPQGLPKTEISTGDIVLVSKGKPTVKEVQGTVAEKTNYYLVVAFRDKPPPYALGKDVRIDLFSNEITFKRMEEALKNFKEHPLRDFILGKKVLEHHHHHH | soluble
MSLARNVPEFGMESYRIEVGRMHGVKPANIVGAIANEAGLESRYIGRIDIRDDHSVLDLPAEMPHEILQHLKKVWVSGQQLQMRRIDTTETEGHHHHHH | soluble
MSINVDEFQCYRIPNVYVQWYDLEPTIHWLTGGNSNSRQIQEMDQKKKKIRSTSAYALFFRERQSLEKRAAPYATFGQISQKIARQWDSLTEEEKKAYKQRCEKNRKTSIANAVEEKARQLLTASKFQ | not soluble
